Experimental data from US20240018237A1 (SICHUAN KELUN BIOTECH BIOPHARMACEUTICAL, published 2024).
Where a chain is given by its changes, count along the chain named.

B1: 3D8-Hu46 (antibody, human IgG1, kappa, V domains shown)
VH: EVQLVESGGGLVQPGGSLRLSCAASGFTFSSYAMSWVRQAPGKGLEWVSSINSGGSTYYPDSVKGRFTISRDNSKNTLYLQMNSLRAEDTAVYYCARVNYYGYGDYAMDYWGQGTLVTVSS
VL: DIQMTQSPSSLSASVGDRVTITCQASQDINSYLSWFQQKPGKSPKTLIYRANRLVTGVPSRFSGSGSGTDYTFTISSLQPEDIATYYCLQYDEFPYTFGGGTKLEIKR
notes: humanized, human IgG1 / kappa
B2: 38F8-Hu27 (antibody, human IgG1, kappa, V domains shown)
VH: EVQLVESGGGLVQPGGSLRLSCAASGFTFSNYAMSWVRQAPGKGLEWVASISSGGPTYYPDSVKGRFTVSRDNSKNTLYLQMNSLRAEDTAVYYCARGYRYDVNWYFDVWGAGTMVTVSS
VL: B1 VL with N30S, S31N, S34T, Y49H, T85I, L104V
notes: humanized, human IgG1 / kappa
B3: 3D8-Hu47 (antibody, human IgG1, kappa, V domains shown)
VH: B1 VH
VL: B1 VL with N30S, S31N
notes: humanized, human IgG1 / kappa
B4: 3D8-HuC44 (antibody, human IgG1, kappa, V domains shown)
VH: B1 VH
VL: B1 VL with N30S, S31N, S34T, Y49H, Y71F, L104V
notes: humanized, human IgG1 / kappa
B5: 38F8-Hu26 (antibody, human IgG1, kappa, V domains shown)
VH: B2 VH
VL: B1 VL with S34T, Y49H, Y71F, L104V
notes: humanized, human IgG1 / kappa
B6: 3D8-HuC94 (antibody, human IgG1, kappa, V domains shown)
VH: B1 VH with G42E, G44R, N52S, S53N
VL: B1 VL with N30S, S31N, S34T, Y49H, Y71F, L104V
notes: humanized, human IgG1 / kappa
B7: 38F8-Hu34 (antibody, human IgG1, kappa, V domains shown)
VH: B2 VH with E1Q, Q13K, P60A, V69I, S74A, T77S
VL: B1 VL with N30S, S31N, S34T, Y49H, Y71F, L104V
notes: humanized, human IgG1 / kappa
B8: 3D8-Hu97 (antibody, human IgG1, kappa, V domains shown)
VH: B1 VH with G42E, G44R, N52S, S53N
VL: B1 VL with N30S, S31N
notes: humanized, human IgG1 / kappa
B9: 38F8-Hu54 (antibody, human IgG1, kappa, V domains shown)
VH: B2 VH with G42E, G44R
VL: B1 VL with N30S, S31N, S34T, Y49H, Y71F, L104V
notes: humanized, human IgG1 / kappa
B10: 38F8-Hu17 (antibody, human IgG1, kappa, V domains shown)
VH: B2 VH with A23T, P60A, K75R, A112R, M115L
VL: B1 VL with N30S, S31N, S34T, Y49H, T85I, L104V
notes: humanized, human IgG1 / kappa
B11: 3D8-Hu85 (antibody, human IgG1, kappa, V domains shown)
VH: B1 VH with G42E, G44R, N52S
VL: B1 VL with S43A, Y71F
notes: humanized, human IgG1 / kappa
B12: 3D8-Hu27 (antibody, human IgG1, kappa, V domains shown)
VH: B1 VH with S49A, S74A, T77S
VL: B1 VL with N30S, S31N
notes: humanized, human IgG1 / kappa
B13: 38F8-Hu38 (antibody, human IgG1, kappa, V domains shown)
VH: B2 VH with E1Q, Q13K, P60A, V69I, S74A, T77S
VL: B1 VL with S34T, Y49H, T85I, L104V
notes: humanized, human IgG1 / kappa
B14: 3D8-Hu86 (antibody, human IgG1, kappa, V domains shown)
VH: B1 VH with G42E, G44R, N52S
VL: B1 VL
notes: humanized, human IgG1 / kappa
B15: 3D8-HuC84 (antibody, human IgG1, kappa, V domains shown)
VH: B1 VH with G42E, G44R, N52S
VL: B1 VL with N30S, S31N, S34T, Y49H, Y71F, L104V
notes: humanized, human IgG1 / kappa
B16: 3D8-Hu25 (antibody, human IgG1, kappa, V domains shown)
VH: B1 VH with S49A, S74A, T77S
VL: B1 VL with S43A, Y71F
notes: humanized, human IgG1 / kappa
B17: 3D8-Hu87 (antibody, human IgG1, kappa, V domains shown)
VH: B1 VH with G42E, G44R, N52S
VL: B1 VL with N30S, S31N
notes: humanized, human IgG1 / kappa
B18: 38F8-Hu28 (antibody, human IgG1, kappa, V domains shown)
VH: B2 VH
VL: B1 VL with S34T, Y49H, T85I, L104V
notes: humanized, human IgG1 / kappa
B19: 38F8-Hu36 (antibody, human IgG1, kappa, V domains shown)
VH: B2 VH with E1Q, Q13K, P60A, V69I, S74A, T77S
VL: B1 VL with S34T, Y49H, Y71F, L104V
notes: humanized, human IgG1 / kappa
B20: 38F8-Hu18 (antibody, human IgG1, kappa, V domains shown)
VH: B2 VH with A23T, P60A, K75R, A112R, M115L
VL: B1 VL with S34T, Y49H, T85I, L104V
notes: humanized, human IgG1 / kappa
B21: 3D8-Hu56 (antibody, human IgG1, kappa, V domains shown)
VH: B1 VH with D72E, S74A, T77S, E88G
VL: B1 VL
notes: humanized, human IgG1 / kappa
B22: 38F8-Hu37 (antibody, human IgG1, kappa, V domains shown)
VH: B2 VH with E1Q, Q13K, P60A, V69I, S74A, T77S
VL: B1 VL with N30S, S31N, S34T, Y49H, T85I, L104V
notes: humanized, human IgG1 / kappa
B23: 3D8-Hu26 (antibody, human IgG1, kappa, V domains shown)
VH: B1 VH with S49A, S74A, T77S
VL: B1 VL
notes: humanized, human IgG1 / kappa
B24: 3D8-Hu96 (antibody, human IgG1, kappa, V domains shown)
VH: B1 VH with G42E, G44R, N52S, S53N
VL: B1 VL
notes: humanized, human IgG1 / kappa
B25: 3D8-Hu55 (antibody, human IgG1, kappa, V domains shown)
VH: B1 VH with D72E, S74A, T77S, E88G
VL: B1 VL with S43A, Y71F
notes: humanized, human IgG1 / kappa
B26: 3D8-Hu45 (antibody, human IgG1, kappa, V domains shown)
VH: B1 VH
VL: B1 VL with S43A, Y71F
notes: humanized, human IgG1 / kappa
B27: 38F8-Hu24 (antibody, human IgG1, kappa, V domains shown)
VH: B2 VH
VL: B1 VL with N30S, S31N, S34T, Y49H, Y71F, L104V
notes: humanized, human IgG1 / kappa
B28: 3D8-Hu95 (antibody, human IgG1, kappa, V domains shown)
VH: B1 VH with G42E, G44R, N52S, S53N
VL: B1 VL with S43A, Y71F
notes: humanized, human IgG1 / kappa
B29: 38F8-Hu14 (antibody, human IgG1, kappa, V domains shown)
VH: B2 VH with A23T, P60A, K75R, A112R, M115L
VL: B1 VL with N30S, S31N, S34T, Y49H, Y71F, L104V
notes: humanized, human IgG1 / kappa
B30: 38F8-Hu16 (antibody, human IgG1, kappa, V domains shown)
VH: B2 VH with A23T, P60A, K75R, A112R, M115L
VL: B1 VL with S34T, Y49H, Y71F, L104V
notes: humanized, human IgG1 / kappa
B31: 3D8-Hu57 (antibody, human IgG1, kappa, V domains shown)
VH: B1 VH with D72E, S74A, T77S, E88G
VL: B1 VL with N30S, S31N
notes: humanized, human IgG1 / kappa
B32: 3D8-HuC54 (antibody, human IgG1, kappa, V domains shown)
VH: B1 VH with D72E, S74A, T77S, E88G
VL: B1 VL with N30S, S31N, S34T, Y49H, Y71F, L104V
notes: humanized, human IgG1 / kappa

These binders were tested against T1, human ROR1 (full-length, on the cell surface) (human, UniProt Q01973 30-937) (assay: flow cytometry, HT-29 cells).
T1 construct: whole, on cells; the tumour cell lines carry their own ROR1; also called Ba/F3-ROR1 cells; Jeko-1
Experimental: (§1) The affinities of the anti-human ROR1 humanized antibodies to Ba/F3-ROR1, Jeko-1, HT-29 and A549 cells were detected by flow cytometry. The specific experimental steps were as follows: the BaBF3-ROR1, Jeko-1, HT-29 and A549 cells were incubated with the purified humanized antibodies of different concentration gradients on ice for 30 minutes, and the anti-ROR1 antibody UC961 with human IgG1 and the anti-TNP antibody were used as positive and negative controls, respectively.

T1 sequence (Q01973 30-937): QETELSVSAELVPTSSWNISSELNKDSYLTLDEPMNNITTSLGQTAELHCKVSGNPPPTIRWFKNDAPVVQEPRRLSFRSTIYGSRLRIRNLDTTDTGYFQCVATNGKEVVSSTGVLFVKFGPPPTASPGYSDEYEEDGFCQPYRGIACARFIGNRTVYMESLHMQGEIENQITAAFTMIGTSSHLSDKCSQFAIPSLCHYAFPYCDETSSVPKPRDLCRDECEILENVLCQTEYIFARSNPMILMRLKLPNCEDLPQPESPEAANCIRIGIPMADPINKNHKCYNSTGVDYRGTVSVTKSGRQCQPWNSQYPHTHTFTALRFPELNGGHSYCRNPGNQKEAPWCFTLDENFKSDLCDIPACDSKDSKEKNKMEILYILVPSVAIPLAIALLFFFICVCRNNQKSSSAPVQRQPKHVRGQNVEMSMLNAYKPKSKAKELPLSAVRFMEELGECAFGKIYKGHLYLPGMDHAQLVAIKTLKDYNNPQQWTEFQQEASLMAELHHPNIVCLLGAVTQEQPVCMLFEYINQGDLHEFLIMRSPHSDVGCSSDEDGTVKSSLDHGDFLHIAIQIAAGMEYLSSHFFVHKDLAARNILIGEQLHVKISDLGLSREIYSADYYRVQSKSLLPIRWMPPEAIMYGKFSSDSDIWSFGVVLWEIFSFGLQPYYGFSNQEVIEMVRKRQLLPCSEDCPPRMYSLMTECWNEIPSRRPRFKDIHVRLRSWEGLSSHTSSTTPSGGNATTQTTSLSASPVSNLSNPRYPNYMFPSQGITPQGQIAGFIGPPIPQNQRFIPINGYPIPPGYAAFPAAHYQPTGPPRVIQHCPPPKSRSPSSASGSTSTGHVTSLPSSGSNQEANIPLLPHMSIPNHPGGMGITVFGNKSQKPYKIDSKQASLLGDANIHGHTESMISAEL

EC50 | Binder
0.35 nM | B1
0.25 nM | B2
0.29 nM | B3
0.16 nM | B4
0.33 nM | B5
0.74 nM | B6
0.29 nM | B7
0.52 nM | B8
0.49 nM | B9
0.29 nM | B10
0.25 nM | B11
0.27 nM | B12
0.59 nM | B13
0.28 nM | B14
1.3 nM | B15
0.23 nM | B16

EC50 | Binder
0.27 nM | B17
0.24 nM | B18
0.37 nM | B19
0.35 nM | B20
0.29 nM | B21
0.44 nM | B22
0.26 nM | B23
0.3 nM | B24
0.17 nM | B25
0.2 nM | B26
0.24 nM | B27
0.36 nM | B28
0.24 nM | B29
0.31 nM | B30
0.28 nM | B31
0.19 nM | B32

What follows are binders tested against T1, human ROR1 (full-length, on the cell …) (assay: flow cytometry, A549 cells).
Experimental: as §1

EC50 | Binder
0.2 nM | B1
0.27 nM | B2
0.31 nM | B3
0.18 nM | B4
0.29 nM | B5
1.38 nM | B6
0.19 nM | B7
0.58 nM | B8
0.46 nM | B9
0.21 nM | B10
0.45 nM | B11
0.91 nM | B12
0.38 nM | B13
0.28 nM | B14
0.85 nM | B15
0.22 nM | B16

EC50 | Binder
0.55 nM | B17
0.34 nM | B18
0.3 nM | B19
0.28 nM | B20
0.3 nM | B21
0.31 nM | B22
0.2 nM | B23
0.54 nM | B24
0.23 nM | B25
0.19 nM | B26
0.21 nM | B27
0.56 nM | B28
0.34 nM | B29
0.22 nM | B30
0.27 nM | B31
0.23 nM | B32

These binders were tested against T1, human ROR1 (full-length, on the cell …) (assay: flow cytometry, Jeko-1 cells).
Experimental: as §1

EC50 | Binder
0.08 nM | B1
0.07 nM | B2
0.08 nM | B3
0.03 nM | B4
0.09 nM | B5
0.06 nM | B6
0.06 nM | B7
0.43 nM | B8
0.09 nM | B9
0.07 nM | B10
0.11 nM | B11
0.04 nM | B12
0.13 nM | B13
0.05 nM | B14
0.06 nM | B15
0.07 nM | B16

EC50 | Binder
0.17 nM | B17
0.12 nM | B18
0.09 nM | B19
0.11 nM | B20
0.09 nM | B21
0.1 nM | B22
0.08 nM | B23
0.11 nM | B24
0.04 nM | B25
0.08 nM | B26
0.05 nM | B27
0.13 nM | B28
0.08 nM | B29
0.08 nM | B30
0.13 nM | B31
0.03 nM | B32

These binders were tested against T1, human ROR1 (full-length, on the cell …) (assay: flow cytometry, Ba/F3-ROR1 cells).
Experimental: as §1

EC50 | Binder
0.39 nM | B1
0.99 nM | B2
0.28 nM | B3
0.28 nM | B4
0.77 nM | B5
0.22 nM | B6
1.23 nM | B7
0.3 nM | B8
1.57 nM | B9
1.48 nM | B10
0.25 nM | B11
0.2 nM | B12
1.43 nM | B13
0.3 nM | B14
0.19 nM | B15
0.29 nM | B16

EC50 | Binder
0.21 nM | B17
1.32 nM | B18
1.16 nM | B19
0.82 nM | B20
0.33 nM | B21
2.35 nM | B22
0.29 nM | B23
0.3 nM | B24
0.33 nM | B25
0.33 nM | B26
0.98 nM | B27
0.32 nM | B28
0.84 nM | B29
0.94 nM | B30
0.37 nM | B31
0.23 nM | B32
